Data taken from patent publication US20050202009A1 (published 2005).

B1: melanotransferrin p97(668-683) (peptide)
peptide: GQDLLFKDATVRAVPV
notes: Eluted from HLA-DR of dendritic cells; also called 13

Target: HLA-DR4 (DRB1*0401) (human)
Assay: in vitro peptide competition assay, purified HLA-DR, biotinylated HA(307-319) reporter

Row | Binder | binding result
1 | TLQSFRQDVDNASLAR (Eluted from HLA-DR of dendritic cells) [vimentin(202-217)] | binds
2 | B1 | binds
3 | DKARVEVERDNLAEDIM (Eluted from HLA-DR of dendritic cells) [vimentin(167-183)] | binds
